We go through three molecules from US20260193366A1 (APOGEE THERAPEUTICS, published 2026).

For assay [1], the target named is T1, hIL-4Rα on cells (human, UniProt P24394 26-825).
T1 sequence: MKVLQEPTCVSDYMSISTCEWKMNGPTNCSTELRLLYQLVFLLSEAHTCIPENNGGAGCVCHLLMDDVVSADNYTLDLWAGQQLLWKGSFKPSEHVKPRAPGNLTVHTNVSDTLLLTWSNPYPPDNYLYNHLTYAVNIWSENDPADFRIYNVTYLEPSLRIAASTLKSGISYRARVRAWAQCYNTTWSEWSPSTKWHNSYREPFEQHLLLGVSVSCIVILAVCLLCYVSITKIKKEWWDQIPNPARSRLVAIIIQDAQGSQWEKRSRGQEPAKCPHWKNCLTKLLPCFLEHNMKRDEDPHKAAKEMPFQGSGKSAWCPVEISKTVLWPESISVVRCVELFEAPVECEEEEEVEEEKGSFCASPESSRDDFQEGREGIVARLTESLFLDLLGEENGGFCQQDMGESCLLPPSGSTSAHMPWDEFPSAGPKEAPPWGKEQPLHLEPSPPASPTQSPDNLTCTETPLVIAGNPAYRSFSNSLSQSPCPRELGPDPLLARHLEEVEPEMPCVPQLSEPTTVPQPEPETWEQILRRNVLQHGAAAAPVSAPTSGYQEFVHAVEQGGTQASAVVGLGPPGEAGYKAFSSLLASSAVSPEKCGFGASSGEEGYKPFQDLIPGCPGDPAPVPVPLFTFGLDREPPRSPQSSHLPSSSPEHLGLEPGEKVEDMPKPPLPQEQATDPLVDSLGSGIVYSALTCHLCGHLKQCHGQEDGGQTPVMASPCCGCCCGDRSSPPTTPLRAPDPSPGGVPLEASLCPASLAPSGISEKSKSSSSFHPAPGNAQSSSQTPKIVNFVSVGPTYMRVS
As to the kind of experiment: cell-based or functional assay.

Assay [2] concerns the target T1, hIL-4Rα on cells. Kind of assay: FACS on HEK293 cells, competitor biotin-hIL-13.
Assay [3] concerns the target T1, hIL-4Rα on cells. Kind of assay: cell-based or functional assay. The source holds these as a separate data set.
Assay [4] concerns the target T1, hIL-4Rα on cells. As to the kind of experiment: cell-based or functional assay. This is another data set of the same source.
Assay [5] has as its target T1, hIL-4Rα on cells. Kind of assay: FACS on HEK293 cells, competitor biotin-hIL-4.
Description: (§1) Briefly, HEK293 previously transduced to stably express both hIL-13Rα and hIL-4Rα were cultured and harvested. Cells were seeded at 200,000 cells in 100 uL per well. Cells were washed and the supernatant discarded. […] The cells were stained in this mixture at 4° C. for 1 hour. […] Cells were incubated 4° C. for 1 hour, protected from light. Cells were then washed and the MFI of cells in each well were recorded by FACS using a BD FACSCanto II. Subsequent data were analyzed using GraphPad Prism.
The target in assay [6] is T2, human IL-4Rα (human, UniProt P24394 26-232).
T2 construct: also called Hu IL-4Rα; hIL-4Rα
T2 sequence: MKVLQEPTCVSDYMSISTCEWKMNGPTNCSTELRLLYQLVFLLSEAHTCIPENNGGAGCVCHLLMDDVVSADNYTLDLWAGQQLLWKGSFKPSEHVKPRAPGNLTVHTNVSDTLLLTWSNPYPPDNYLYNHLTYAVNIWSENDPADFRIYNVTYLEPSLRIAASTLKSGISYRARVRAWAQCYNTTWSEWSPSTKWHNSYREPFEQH
As to the kind of experiment: SPR, Carterra LSA.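 Further: antibodies captured on an anti-human Fc sensor chip, antigen injected at several concentrations, association and dissociation rates fitted with a 1:1 Langmuir model.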 In general terms: In SPR one partner is held on a chip, and binding of the other changes the refractive index at the surface.

Another assay addresses T3, cynomolgus monkey IL-4Rα (cynomolgus monkey, UniProt P24394 26-231 (human entry), limits assumed).
T3 construct: also called Cyno IL-4Rα; cyIL-4Rα
T3 chain: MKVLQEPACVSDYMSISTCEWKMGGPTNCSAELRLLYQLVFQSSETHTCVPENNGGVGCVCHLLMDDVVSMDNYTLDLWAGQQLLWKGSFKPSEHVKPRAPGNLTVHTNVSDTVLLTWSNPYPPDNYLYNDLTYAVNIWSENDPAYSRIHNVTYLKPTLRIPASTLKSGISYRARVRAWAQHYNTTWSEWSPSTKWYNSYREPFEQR
Kind of assay: SPR, Carterra LSA.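 Further: antibodies captured on an anti-human Fc sensor chip, antigen injected at several concentrations, association and dissociation rates fitted with a 1:1 Langmuir model.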

For assay [7], the target named is T2, human IL-4Rα. As to the kind of experiment: KinExA. Background: A kinetic exclusion assay measures how much of one partner remains free in solution.
Description: Binding affinity (KD) of exemplary antibodies to human IL-4Rα was determined using the Kinetic Exclusion Assay (KinExA). Briefly, antibody and recombinant human IL-4Rα were equilibrated in solution. […] Samples were incubated for a time period ranging from 3.5 hours to 340 hours, to fully reach equilibrium. Once samples reached equilibrium, azlactone beads previously coated with recombinant human IL-4Rα were used to capture any free antibody from the equilibrated solution. […] The KinExA 4000 instrument was used to capture fluorescent signal and convert to a voltage signal that is directly proportional to the amount of free antibody in all the equilibrated samples, allowing for the determination of the apparent affinity of the antibody.
In assay [8] the target is T1, hIL-4Rα on cells. Kind of assay: cell-based or functional assay. The source holds these as a separate data set.
For assay [9], the target named is T1, hIL-4Rα on cells. As to the kind of experiment: cell-based or functional assay. The source holds these as a separate data set.
In assay [10] the target is T1, hIL-4Rα on cells. As to the kind of experiment: FACS on HEK293 cells, competitor biotin-hIL-13. The source holds these as a separate data set.
Description: as §1
(§2) The values reflect absolute IC₅₀ measurements.
The target in assay [11] is T1, hIL-4Rα on cells. Kind of assay: cell-based or functional assay. The source holds these as a separate data set.
Assay [12] deals with T1, hIL-4Rα on cells. Kind of assay: FACS on HEK293 cells, competitor biotin-hIL-4. This is another data set of the same source.
Description: as §1, §2
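Wherever Relative Blockade of IL-13 Binding IC50 is given: stably transduced cells co-expressing both receptor chains, stained cold, with cell-bound signal read as mean fluorescence intensity by flow cytometry.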
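Wherever Relative Blockade of IL-4 Binding IC50 is given: HEK293 cells stably co-expressing hIL-13Rα and hIL-4Rα, stained for 1 h at 4 °C, read-out as mean fluorescence intensity by flow cytometry.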

B1: Construct 24 (mAb432) (antibody, IgG4, V domains shown)
VH: EVQLVESGGGLEQPGGSLRLSCAGSGFTFRDFAMTWVRQAPGKGLEWVSSISGSGGNIYYADSVKGRFTISRDNSKNTLYLQMNSLRAEDTAVYYCAKDRLSIAVRPRYYGLDVWGQGTTVTVSS
VL: DIVMTQSPLSLPVTPGEPASISCTASQSLLYSIGKNYVDWYLQKSGQSPQLLIYLGNNRATGVPDRFSGSGSGTDFTLKISRVEAEDVGFYYCMQSLTSPYTFGQGTKLEIK
notes: VH/VL only
By Kd is commonly meant the constant that tells how readily two partners part at equilibrium. In the case of B1, in the assay with hIL-4Rα on cells [1], the “Relative Inhibition of IL-4 induced TARC IC50” value was 0.445 relative to dupilumab and the “Relative Inhibition of IL-13 induced TARC IC50” value is 0.594 relative to dupilumab. Besides, in the assay with hIL-4Rα on cells [2], the “Relative Blockade of IL-13 Binding IC50” value is 0.825 relative to dupilumab. Further, in the assay with hIL-4Rα on cells [3], the “Relative Inhibition of IL-4 induced TF-1 Proliferation IC50” value is 1.03 relative to dupilumab and the “Relative Inhibition of IL-13 induced TF-1 Proliferation IC50” value is 0.693 relative to dupilumab. In the assay with hIL-4Rα on cells [4], the “Relative Inhibition of IL-4 induced pSTAT6 IC50” value was 0.629 relative to dupilumab and the “Relative Inhibition of IL-13 induced pSTAT6 IC50” value was 0.586 relative to dupilumab. In the assay with hIL-4Rα on cells [5], the “Relative Blockade of IL-4 Binding IC50” value was 0.973 relative to dupilumab. In the assay with human IL-4Rα [6], the “KD Relative to Dupilumab” value is 0.79 and the Kd worked out at 0.00891 nM. In addition, in the assay with cynomolgus monkey IL-4Rα, the “KD Relative to Dupilumab” value amounted to 0.11 and binding was characterised by a dissociation constant (Kd) of 66.9 nM. Also, in the assay with human IL-4Rα [7], the “KD Relative to Dupilumab” value was 0.105 and binding was characterised by a dissociation constant (Kd) of 0.000118 nM.

B2: Construct 38 (mAb471) with IgG1 YTE LALA heavy chain constant region (antibody, V domains shown)
VH: EVQLVESGGGLEQPGGSLRLSCAGSGFTFRDFAMTWVRQAPGKGLEWVSSISGSGGNIYYADSVKGRFTISRDNSKNTLYLQMNSLRAEDTAVYYCAKDRLSVTVRPRYYGLDVWGQGTTVTVSS
VL: DIVMTQSPLSLPVTPGEPASISCRSSQSLLYSIGKNYVDWYLQKSGQSPQLLIYEGNKRASGVPDRFSGSGSGTDFTLKISRVEAEDVGFYYCMQSLTSPYTFGQGTKLEIK
By IC50 is commonly meant the point on the concentration scale where inhibition reaches its midpoint. For B2, in the assay with hIL-4Rα on cells [8], the “Inhibition of IL-4 induced pSTAT6 IC50” value is 0.248 nM and the “Inhibition of IL-13 induced pSTAT6 IC50” value is 1.05 nM. In the assay with hIL-4Rα on cells [9], the “Inhibition of IL-4 induced TF-1 Proliferation IC50” value turned out to be 0.052 nM and the “Inhibition of IL-13 induced TF-1 Proliferation IC50” value was determined as 0.161 nM. The IC50 with hIL-4Rα on cells [10] amounted to 0.226 nM. In the assay with hIL-4Rα on cells [11], the “Inhibition of IL-4 induced TARC IC50” value worked out at 0.259 nM and the “Inhibition of IL-13 induced TARC IC50” value was 0.527 nM. In the assay with hIL-4Rα on cells [12], the IC50 amounted to 0.271 nM.

B3: Construct 15 (mAb423) with IgG1 YTE LALA heavy chain constant region (antibody, V domains shown)
VH: EVQLVESGGGLEQPGGSLRLSCAGSGFTFRDFAMTWVRQAPGKGLEWVSSISGSGGNIYYADSVKGRFTISRDNSKNTLYLQMNSLRAEDTAVYYCAKDRLSKTIRPRYYGLDVWGQGTTVTVSS
VL: DIVMTQSPLSLPVTPGEPASISCTASQSLLYSIGYNYVDWYLQKSGQSPQLLIYLGNKRASGVPDRFSGSGSGTDFTLKISRVEAEDVGFYYCMQSLTSPYTFGQGTKLEIK
For the molecule B3, in the assay with hIL-4Rα on cells [8], the “Inhibition of IL-4 induced pSTAT6 IC50” value was found to be 0.122 nM and the “Inhibition of IL-13 induced pSTAT6 IC50” value was found to be 0.599 nM. For the same molecule, in the assay with hIL-4Rα on cells [9], the “Inhibition of IL-4 induced TF-1 Proliferation IC50” value was determined as 0.028 nM and the “Inhibition of IL-13 induced TF-1 Proliferation IC50” value is 0.117 nM. For the same molecule, the IC50 in the assay with hIL-4Rα on cells [10] was determined as 0.204 nM. Moreover, in the assay with hIL-4Rα on cells [11], the “Inhibition of IL-4 induced TARC IC50” value amounted to 0.127 nM and the “Inhibition of IL-13 induced TARC IC50” value came to 0.212 nM. The same molecule came in with an IC50 with hIL-4Rα on cells [12] of 0.23 nM.
